# Biological target: T1, VLP2 (virus-like particles of AAV2) (AAV2, UniProt P03135 1-735; P03135 1-598; P03135 1-533)
# T1 construct: Empty AAV2 capsid; background says about 60 protein molecules, VP1:VP2:VP3 = 1:1:10; Immobilised on the ELISA plate
# Experiment: ELISA on VLP2; binding after pH 3.0 51.1°C 15 min / untreated;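 note: binding of the heat-treated AAV-binding protein to VLP2, expressed as a percentage of the binding of the same protein without heating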
# Protocol: (§1) The residual activity was calculated by dividing the binding activity of AAV-binding protein to VLP2 when the heat treatment was performed by the binding activity of AAV-binding protein to VLP2 when the heat treatment was not performed.
# T1 sequence (P03135 whole entry, chain 1 of 3): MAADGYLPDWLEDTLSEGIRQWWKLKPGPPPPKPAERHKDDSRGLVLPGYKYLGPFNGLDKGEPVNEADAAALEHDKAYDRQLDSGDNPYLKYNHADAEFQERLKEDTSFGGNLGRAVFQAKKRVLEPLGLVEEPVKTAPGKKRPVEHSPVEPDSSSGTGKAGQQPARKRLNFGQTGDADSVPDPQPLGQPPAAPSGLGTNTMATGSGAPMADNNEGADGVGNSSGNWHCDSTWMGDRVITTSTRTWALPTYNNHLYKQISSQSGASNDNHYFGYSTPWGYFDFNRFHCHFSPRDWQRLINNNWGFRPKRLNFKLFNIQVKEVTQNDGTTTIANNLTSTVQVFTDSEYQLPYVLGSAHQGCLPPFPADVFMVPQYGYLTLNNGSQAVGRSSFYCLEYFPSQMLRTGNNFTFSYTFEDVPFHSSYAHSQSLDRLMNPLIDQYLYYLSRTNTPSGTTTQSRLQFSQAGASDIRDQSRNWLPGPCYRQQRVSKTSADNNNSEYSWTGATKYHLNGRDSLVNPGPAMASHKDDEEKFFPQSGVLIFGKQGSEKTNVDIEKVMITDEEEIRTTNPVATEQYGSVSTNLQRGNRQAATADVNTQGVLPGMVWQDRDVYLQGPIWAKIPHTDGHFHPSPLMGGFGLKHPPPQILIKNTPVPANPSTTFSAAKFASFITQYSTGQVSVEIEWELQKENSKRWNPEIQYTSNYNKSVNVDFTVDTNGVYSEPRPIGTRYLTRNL
# T1 sequence (P03135 139-735, tags left off, chain 2 of 3): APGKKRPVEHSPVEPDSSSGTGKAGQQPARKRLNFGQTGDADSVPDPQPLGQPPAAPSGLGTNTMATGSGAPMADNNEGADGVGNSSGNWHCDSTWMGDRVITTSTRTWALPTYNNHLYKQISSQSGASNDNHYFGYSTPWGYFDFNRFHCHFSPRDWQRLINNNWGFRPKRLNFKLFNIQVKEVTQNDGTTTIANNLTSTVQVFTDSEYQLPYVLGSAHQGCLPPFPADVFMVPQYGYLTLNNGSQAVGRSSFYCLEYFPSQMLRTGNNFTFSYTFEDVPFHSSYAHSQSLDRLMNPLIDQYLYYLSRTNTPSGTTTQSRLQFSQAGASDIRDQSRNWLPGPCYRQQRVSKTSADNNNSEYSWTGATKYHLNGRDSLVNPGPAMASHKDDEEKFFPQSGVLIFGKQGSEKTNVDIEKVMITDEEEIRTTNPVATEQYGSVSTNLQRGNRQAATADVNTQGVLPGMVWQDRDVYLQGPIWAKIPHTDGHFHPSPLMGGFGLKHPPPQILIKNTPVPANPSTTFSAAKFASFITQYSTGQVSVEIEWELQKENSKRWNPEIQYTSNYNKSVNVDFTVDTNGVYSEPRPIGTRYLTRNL
# T1 sequence (P03135 203-735, chain 3 of 3): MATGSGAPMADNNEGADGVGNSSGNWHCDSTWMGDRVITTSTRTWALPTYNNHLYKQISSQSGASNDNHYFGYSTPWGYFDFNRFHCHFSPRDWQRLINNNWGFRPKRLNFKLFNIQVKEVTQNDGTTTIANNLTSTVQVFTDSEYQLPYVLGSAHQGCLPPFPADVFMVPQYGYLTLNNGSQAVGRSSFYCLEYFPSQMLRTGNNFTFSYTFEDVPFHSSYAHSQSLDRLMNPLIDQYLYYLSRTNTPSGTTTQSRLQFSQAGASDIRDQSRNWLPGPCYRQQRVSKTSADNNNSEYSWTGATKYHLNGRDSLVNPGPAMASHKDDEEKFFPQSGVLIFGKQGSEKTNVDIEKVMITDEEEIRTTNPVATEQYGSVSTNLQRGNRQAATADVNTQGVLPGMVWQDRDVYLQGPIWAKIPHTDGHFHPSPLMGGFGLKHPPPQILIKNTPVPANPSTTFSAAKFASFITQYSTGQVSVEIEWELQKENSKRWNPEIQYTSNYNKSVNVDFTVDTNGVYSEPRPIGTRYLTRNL
row,Binder,Residual activity [%]
1,AAV-binding protein No. 72 (AVR2 + Val394Ala) (receptor) MGSAGESVQITLPKNEVQLNAYVLQEPPKGETCTYDWQLITHPRDYSGEMEGKHSQILKLSKLTPGLYEFKVIVEGQNAHSEGYANVTVKPEPRKNRPPIAIVSPQFQEISLPTTSTVIDGSQSTDDDKIVQYHWEELKGPLREEKISEDTAILKLSKLVPGNYTFSLTVVDSDGATNSTTANLTVNKAVDHHHHHH,32
2,"AAV-binding protein No. 82 (AVR2 + Ser476Arg, Thr490Ser) (receptor) MGSAGESVQITLPKNEVQLNAYVLQEPPKGETCTYDWQLITHPRDYSGEMEGKHSQILKLSKLTPGLYEFKVIVEGQNAHSEGYVNVTVKPEPRKNRPPIAIVSPQFQEISLPTTSTVIDGSQSTDDDKIVQYHWEELKGPLREEKISEDTAILKLSKLVPGNYTFRLTVVDSDGATNSTSANLTVNKAVDHHHHHH",70.6
3,"AAV-binding protein No. 83 (AVR2 + Ile319Ser, Thr320Ile, Lys399Glu) (receptor) MGSAGESVQSILPKNEVQLNAYVLQEPPKGETCTYDWQLITHPRDYSGEMEGKHSQILKLSKLTPGLYEFKVIVEGQNAHSEGYVNVTVEPEPRKNRPPIAIVSPQFQEISLPTTSTVIDGSQSTDDDKIVQYHWEELKGPLREEKISEDTAILKLSKLVPGNYTFSLTVVDSDGATNSTTANLTVNKAVDHHHHHH",70.2
4,"AAV-binding protein No. 84 (AVR2 + Pro336Gln, Gln386Arg, Asn487Asp) (receptor) MGSAGESVQITLPKNEVQLNAYVLQEQPKGETCTYDWQLITHPRDYSGEMEGKHSQILKLSKLTPGLYEFKVIVEGRNAHSEGYVNVTVKPEPRKNRPPIAIVSPQFQEISLPTTSTVIDGSQSTDDDKIVQYHWEELKGPLREEKISEDTAILKLSKLVPGNYTFSLTVVDSDGATDSTTANLTVNKAVDHHHHHH",48.4
5,"AAV-binding protein No. 78 (AVR2 + Leu328Pro, Ile366Phe) (receptor) MGSAGESVQITLPKNEVQPNAYVLQEPPKGETCTYDWQLITHPRDYSGEMEGKHSQFLKLSKLTPGLYEFKVIVEGQNAHSEGYVNVTVKPEPRKNRPPIAIVSPQFQEISLPTTSTVIDGSQSTDDDKIVQYHWEELKGPLREEKISEDTAILKLSKLVPGNYTFSLTVVDSDGATNSTTANLTVNKAVDHHHHHH",55.9
6,"AAV-binding protein No. 81 (AVR2 + Phe379Ser, Ser476Gly) (receptor) MGSAGESVQITLPKNEVQLNAYVLQEPPKGETCTYDWQLITHPRDYSGEMEGKHSQILKLSKLTPGLYESKVIVEGQNAHSEGYVNVTVKPEPRKNRPPIAIVSPQFQEISLPTTSTVIDGSQSTDDDKIVQYHWEELKGPLREEKISEDTAILKLSKLVPGNYTFGLTVVDSDGATNSTTANLTVNKAVDHHHHHH",66.3
7,AAV-binding protein No. 76 (AVR2 + Asn492Asp) (receptor) MGSAGESVQITLPKNEVQLNAYVLQEPPKGETCTYDWQLITHPRDYSGEMEGKHSQILKLSKLTPGLYEFKVIVEGQNAHSEGYVNVTVKPEPRKNRPPIAIVSPQFQEISLPTTSTVIDGSQSTDDDKIVQYHWEELKGPLREEKISEDTAILKLSKLVPGNYTFSLTVVDSDGATNSTTADLTVNKAVDHHHHHH,36.4
8,"AAV-binding protein No. 80 (AVR2 + Gln365Arg, Gly392Cys) (receptor) MGSAGESVQITLPKNEVQLNAYVLQEPPKGETCTYDWQLITHPRDYSGEMEGKHSRILKLSKLTPGLYEFKVIVEGQNAHSECYVNVTVKPEPRKNRPPIAIVSPQFQEISLPTTSTVIDGSQSTDDDKIVQYHWEELKGPLREEKISEDTAILKLSKLVPGNYTFSLTVVDSDGATNSTTANLTVNKAVDHHHHHH",49.9
9,AAV-binding protein No. 73 (AVR2 + Val396Ala) (receptor) MGSAGESVQITLPKNEVQLNAYVLQEPPKGETCTYDWQLITHPRDYSGEMEGKHSQILKLSKLTPGLYEFKVIVEGQNAHSEGYVNATVKPEPRKNRPPIAIVSPQFQEISLPTTSTVIDGSQSTDDDKIVQYHWEELKGPLREEKISEDTAILKLSKLVPGNYTFSLTVVDSDGATNSTTANLTVNKAVDHHHHHH,48.9
10,"AAV-binding protein No. 77 (AVR2 + Leu321Pro, Ile409Val) (receptor) MGSAGESVQITPPKNEVQLNAYVLQEPPKGETCTYDWQLITHPRDYSGEMEGKHSQILKLSKLTPGLYEFKVIVEGQNAHSEGYVNVTVKPEPRKNRPPVAIVSPQFQEISLPTTSTVIDGSQSTDDDKIVQYHWEELKGPLREEKISEDTAILKLSKLVPGNYTFSLTVVDSDGATNSTTANLTVNKAVDHHHHHH",34.3
11,"AAV-binding protein No. 79 (AVR2 + Lys338Asn, Asn487Asp) (receptor) MGSAGESVQITLPKNEVQLNAYVLQEPPNGETCTYDWQLITHPRDYSGEMEGKHSQILKLSKLTPGLYEFKVIVEGQNAHSEGYVNVTVKPEPRKNRPPIAIVSPQFQEISLPTTSTVIDGSQSTDDDKIVQYHWEELKGPLREEKISEDTAILKLSKLVPGNYTFSLTVVDSDGATDSTTANLTVNKAVDHHHHHH",73.1
12,AAV-binding protein No. 74 (AVR2 + Ser476Gly) (receptor) MGSAGESVQITLPKNEVQLNAYVLQEPPKGETCTYDWQLITHPRDYSGEMEGKHSQILKLSKLTPGLYEFKVIVEGQNAHSEGYVNVTVKPEPRKNRPPIAIVSPQFQEISLPTTSTVIDGSQSTDDDKIVQYHWEELKGPLREEKISEDTAILKLSKLVPGNYTFGLTVVDSDGATNSTTANLTVNKAVDHHHHHH,63.4

# Biological target: T1, VLP2 (virus-like particles of AAV2)
# Experiment: ELISA on VLP2; binding after pH 3.0 61.0°C 15 min / untreated
# Protocol: (3) The culture solution of (2) was centrifuged, and the obtained culture supernatant was diluted 32-fold with ultrapure water. The diluted culture solution in an amount of 60 μL and 60 μL of 0.1 M glycine hydrochloric acid buffer (pH 3.0) were mixed, and heat treatment and acid treatment were performed at 61.0° C. for 15 minutes.
# as §1
row,Binder,Residual activity [%]
1,AAV-binding protein No. 90 (AVR5e + Gly392Cys) (receptor) MGSAGESVQITLPKNEVQLNAYVLQEPPKGETCTYDWQLITHPRDYSGEMEGKHSQILKLSKLTPGLYEFKVIVEGQNAHSECYVNVTVEPEPRKNRPPIAIVSPQFQEISLPTTSTVIDGSQSTDDDKIVQYHWEELKGPLREEKISEDTAILKLSKLVPGNYTFRLTVVDSDGATDSTTANLTVNKAVDHHHHHH,53.3
2,"AAV-binding protein No. 95 (AVR5e + Val326Ala, Lys362Glu) (receptor) MGSAGESVQITLPKNEAQLNAYVLQEPPKGETCTYDWQLITHPRDYSGEMEGEHSQILKLSKLTPGLYEFKVIVEGQNAHSEGYVNVTVEPEPRKNRPPIAIVSPQFQEISLPTTSTVIDGSQSTDDDKIVQYHWEELKGPLREEKISEDTAILKLSKLVPGNYTFRLTVVDSDGATDSTTANLTVNKAVDHHHHHH",45.3
3,"AAV-binding protein No. 96 (AVR5e + Val326Glu, Phe379Ser) (receptor) MGSAGESVQITLPKNEEQLNAYVLQEPPKGETCTYDWQLITHPRDYSGEMEGKHSQILKLSKLTPGLYESKVIVEGQNAHSEGYVNVTVEPEPRKNRPPIAIVSPQFQEISLPTTSTVIDGSQSTDDDKIVQYHWEELKGPLREEKISEDTAILKLSKLVPGNYTFRLTVVDSDGATDSTTANLTVNKAVDHHHHHH",60.9
4,"AAV-binding protein No. 97 (AVR5e + Val332Ala, Lys371Glu) (receptor) MGSAGESVQITLPKNEVQLNAYALQEPPKGETCTYDWQLITHPRDYSGEMEGKHSQILKLSELTPGLYEFKVIVEGQNAHSEGYVNVTVEPEPRKNRPPIAIVSPQFQEISLPTTSTVIDGSQSTDDDKIVQYHWEELKGPLREEKISEDTAILKLSKLVPGNYTFRLTVVDSDGATDSTTANLTVNKAVDHHHHHH",49.6
5,AAV-binding protein No. 85 (AVR5e + Val317Asp) (receptor) MGSAGESDQITLPKNEVQLNAYVLQEPPKGETCTYDWQLITHPRDYSGEMEGKHSQILKLSKLTPGLYEFKVIVEGQNAHSEGYVNVTVEPEPRKNRPPIAIVSPQFQEISLPTTSTVIDGSQSTDDDKIVQYHWEELKGPLREEKISEDTAILKLSKLVPGNYTFRLTVVDSDGATDSTTANLTVNKAVDHHHHHH,50.2
6,AAV-binding protein No. 88 (AVR5e + Leu376Pro) (receptor) MGSAGESVQITLPKNEVQLNAYVLQEPPKGETCTYDWQLITHPRDYSGEMEGKHSQILKLSKLTPGPYEFKVIVEGQNAHSEGYVNVTVEPEPRKNRPPIAIVSPQFQEISLPTTSTVIDGSQSTDDDKIVQYHWEELKGPLREEKISEDTAILKLSKLVPGNYTFRLTVVDSDGATDSTTANLTVNKAVDHHHHHH,41.7
7,AAV-binding protein No. 86 (AVR5e + Lys371Glu) (receptor) MGSAGESVQITLPKNEVQLNAYVLQEPPKGETCTYDWQLITHPRDYSGEMEGKHSQILKLSELTPGLYEFKVIVEGQNAHSEGYVNVTVEPEPRKNRPPIAIVSPQFQEISLPTTSTVIDGSQSTDDDKIVQYHWEELKGPLREEKISEDTAILKLSKLVPGNYTFRLTVVDSDGATDSTTANLTVNKAVDHHHHHH,41.6
8,"AAV-binding protein No. 92 (AVR5e + Thr320Ala, Val381Asp) (receptor) MGSAGESVQIALPKNEVQLNAYVLQEPPKGETCTYDWQLITHPRDYSGEMEGKHSQILKLSKLTPGLYEFKDIVEGQNAHSEGYVNVTVEPEPRKNRPPIAIVSPQFQEISLPTTSTVIDGSQSTDDDKIVQYHWEELKGPLREEKISEDTAILKLSKLVPGNYTFRLTVVDSDGATDSTTANLTVNKAVDHHHHHH",52.4
9,AAV-binding protein No. 89 (AVR5e + Glu378Gly) (receptor) MGSAGESVQITLPKNEVQLNAYVLQEPPKGETCTYDWQLITHPRDYSGEMEGKHSQILKLSKLTPGLYGFKVIVEGQNAHSEGYVNVTVEPEPRKNRPPIAIVSPQFQEISLPTTSTVIDGSQSTDDDKIVQYHWEELKGPLREEKISEDTAILKLSKLVPGNYTFRLTVVDSDGATDSTTANLTVNKAVDHHHHHH,46.1
10,"AAV-binding protein No. 94 (AVR5e + Val326Glu, Asn329His) (receptor) MGSAGESVQITLPKNEEQLHAYVLQEPPKGETCTYDWQLITHPRDYSGEMEGKHSQILKLSKLTPGLYEFKVIVEGQNAHSEGYVNVTVEPEPRKNRPPIAIVSPQFQEISLPTTSTVIDGSQSTDDDKIVQYHWEELKGPLREEKISEDTAILKLSKLVPGNYTFRLTVVDSDGATDSTTANLTVNKAVDHHHHHH",44.9
11,AAV-binding protein No. 87 (AVR5e + Lys371Asn) (receptor) MGSAGESVQITLPKNEVQLNAYVLQEPPKGETCTYDWQLITHPRDYSGEMEGKHSQILKLSNLTPGLYEFKVIVEGQNAHSEGYVNVTVEPEPRKNRPPIAIVSPQFQEISLPTTSTVIDGSQSTDDDKIVQYHWEELKGPLREEKISEDTAILKLSKLVPGNYTFRLTVVDSDGATDSTTANLTVNKAVDHHHHHH,56.5

# From patent US20220402995A1 (TOSOH, published 2022)
